The source of these data is PMC3581772.

The target in assay [1] is T1, I59T human lysozyme (human) (UniProt P61626).
T1 sequence: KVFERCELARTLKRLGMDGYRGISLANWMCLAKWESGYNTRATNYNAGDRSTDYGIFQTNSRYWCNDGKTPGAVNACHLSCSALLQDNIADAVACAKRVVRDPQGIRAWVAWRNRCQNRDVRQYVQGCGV

For assay [2], the target named is amyloid β peptide Aβ(1–42) (UniProt P05067).

Chain of trypsin-activated α2M (P01023 whole entry, looked up): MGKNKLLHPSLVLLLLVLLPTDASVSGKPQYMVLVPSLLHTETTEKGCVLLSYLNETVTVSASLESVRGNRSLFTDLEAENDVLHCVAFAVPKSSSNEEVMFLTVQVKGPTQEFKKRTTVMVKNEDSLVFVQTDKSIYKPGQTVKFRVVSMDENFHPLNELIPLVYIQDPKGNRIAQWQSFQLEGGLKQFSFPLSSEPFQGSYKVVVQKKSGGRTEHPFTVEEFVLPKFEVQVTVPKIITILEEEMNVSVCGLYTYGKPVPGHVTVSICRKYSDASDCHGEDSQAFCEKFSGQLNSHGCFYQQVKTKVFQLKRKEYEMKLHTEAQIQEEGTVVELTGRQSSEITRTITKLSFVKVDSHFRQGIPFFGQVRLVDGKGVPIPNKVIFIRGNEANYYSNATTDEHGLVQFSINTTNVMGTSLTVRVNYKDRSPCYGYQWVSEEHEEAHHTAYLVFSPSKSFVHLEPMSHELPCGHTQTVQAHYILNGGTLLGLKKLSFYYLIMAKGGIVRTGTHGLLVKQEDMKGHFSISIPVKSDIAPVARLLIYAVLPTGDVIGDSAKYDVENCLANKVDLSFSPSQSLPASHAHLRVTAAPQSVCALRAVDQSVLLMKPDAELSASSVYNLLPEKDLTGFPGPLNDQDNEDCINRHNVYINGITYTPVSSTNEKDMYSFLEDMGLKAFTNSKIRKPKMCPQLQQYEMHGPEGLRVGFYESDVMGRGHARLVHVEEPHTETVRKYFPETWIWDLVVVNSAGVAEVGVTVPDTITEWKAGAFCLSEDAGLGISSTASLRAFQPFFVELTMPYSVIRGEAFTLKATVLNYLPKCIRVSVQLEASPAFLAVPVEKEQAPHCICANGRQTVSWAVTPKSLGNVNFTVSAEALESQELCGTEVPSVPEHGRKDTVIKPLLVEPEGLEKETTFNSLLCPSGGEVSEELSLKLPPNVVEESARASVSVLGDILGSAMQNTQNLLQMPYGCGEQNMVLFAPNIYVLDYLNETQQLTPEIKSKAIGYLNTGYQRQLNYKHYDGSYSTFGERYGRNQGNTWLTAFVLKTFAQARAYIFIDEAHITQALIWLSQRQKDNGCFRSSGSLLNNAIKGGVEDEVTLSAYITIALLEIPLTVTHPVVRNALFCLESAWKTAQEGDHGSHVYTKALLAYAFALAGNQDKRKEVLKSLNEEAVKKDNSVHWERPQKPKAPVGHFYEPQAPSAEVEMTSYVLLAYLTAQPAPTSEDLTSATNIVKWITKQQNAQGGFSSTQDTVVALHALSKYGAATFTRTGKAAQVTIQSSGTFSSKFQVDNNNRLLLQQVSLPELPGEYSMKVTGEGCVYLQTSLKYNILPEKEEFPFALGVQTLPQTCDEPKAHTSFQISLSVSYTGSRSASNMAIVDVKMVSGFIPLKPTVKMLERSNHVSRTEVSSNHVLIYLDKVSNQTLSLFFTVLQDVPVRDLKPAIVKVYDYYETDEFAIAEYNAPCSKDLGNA

In the case of “trypsin-activated α2M (from UniProt P01023 24-1474) (complex)”, the decrease of ThT fluorescence at the endpoint of I59T lysozyme fibril formation, lysozyme-to-α2M 10:1 in assay [1] was above 90%. This substance displayed a suppression of ThT signal at the endpoint of Aβ(1–42) fibril formation, Aβ-to-α2M 10:1 in assay [2] above 80%.
